The target of test [1] is T1, recombinant human IL-26/AK155 monomer, Cat #1375-IL/CF, R&D Systems (human, UniProt Q9NPH9 22-171).
T1 construct: also called recombinant human IL-26 monomer
T1 sequence (looked up): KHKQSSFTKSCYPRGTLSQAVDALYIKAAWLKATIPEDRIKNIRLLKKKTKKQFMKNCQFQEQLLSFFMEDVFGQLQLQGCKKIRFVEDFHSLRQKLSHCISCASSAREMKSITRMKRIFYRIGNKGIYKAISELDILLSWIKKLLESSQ
As to the kind of experiment: ELISA, human IL-26 monomer coated at 0.5 µg/ml, antibody diluted 2-fold from 5 µg/ml, HRP anti-mouse kappa detection. On the procedure: The antigen binding of purified Ch69-10-IgG1, Hu69-10A-IgG1, and Hu69-10B-IgG1 was analyzed by ELISA. ELISA plates were coated overnight at 4° C. with the addition of 0.5 μg/ml human IL-26 (recombinant human IL-26/AK155 monomer, Cat #1375-IL/CF, R&D Systems, Minneapolis, MN) at 100 μl/well in 0.2 M sodium carbonate buffer (pH 9.4). Wells were washed with the wash buffer and blocked with the ELISA buffer. Subsequently, 100 μl/well of test antibody (mouse 69-10, Ch69-10-IgG1, Hu69-10A-IgG1, or Hu69-10B-IgG1) serially diluted 2-fold in RPMI medium starting at 5 μg/ml was added to measure a binding with IL-26. After incubation at room temperature for 1 hour and washing the plates with a wash buffer, a 1/2,000-diluted HRP-conjugated goat anti-human kappa chain polyclonal antibody (Bethyl Laboratories) (for Ch69-10-IgG1, Hu69-10A-IgG1 and Hu69-10B-IgG1) or a 1/2,000-diluted HRP-labeled goat anti-mouse kappa chain polyclonal antibody (Bethyl Laboratories) (for mouse 69-10) in ELISA buffer was added at 100 μl/well to detect bound antibodies. After incubation at room temperature for 30 min and washing with the wash buffer, 100 μl/well of ABTS substrate (Sigma Aldrich) was added to start color development and 100 μl/well of 2% oxalic acid was added to stop the color development. The absorbance was measured at 405 nm.
For orientation: An ELISA detects its analyte on a solid surface through an enzyme-linked reagent.

The target of test [2] is T2, human EphA3 on the surface of HCC70 cells (human, UniProt P29320 21-983).
T2 construct: whole, on cells; Endogenous receptor on HCC70 cells; also called cell surface EphA3; EphA3 receptor
T2 sequence (looked up): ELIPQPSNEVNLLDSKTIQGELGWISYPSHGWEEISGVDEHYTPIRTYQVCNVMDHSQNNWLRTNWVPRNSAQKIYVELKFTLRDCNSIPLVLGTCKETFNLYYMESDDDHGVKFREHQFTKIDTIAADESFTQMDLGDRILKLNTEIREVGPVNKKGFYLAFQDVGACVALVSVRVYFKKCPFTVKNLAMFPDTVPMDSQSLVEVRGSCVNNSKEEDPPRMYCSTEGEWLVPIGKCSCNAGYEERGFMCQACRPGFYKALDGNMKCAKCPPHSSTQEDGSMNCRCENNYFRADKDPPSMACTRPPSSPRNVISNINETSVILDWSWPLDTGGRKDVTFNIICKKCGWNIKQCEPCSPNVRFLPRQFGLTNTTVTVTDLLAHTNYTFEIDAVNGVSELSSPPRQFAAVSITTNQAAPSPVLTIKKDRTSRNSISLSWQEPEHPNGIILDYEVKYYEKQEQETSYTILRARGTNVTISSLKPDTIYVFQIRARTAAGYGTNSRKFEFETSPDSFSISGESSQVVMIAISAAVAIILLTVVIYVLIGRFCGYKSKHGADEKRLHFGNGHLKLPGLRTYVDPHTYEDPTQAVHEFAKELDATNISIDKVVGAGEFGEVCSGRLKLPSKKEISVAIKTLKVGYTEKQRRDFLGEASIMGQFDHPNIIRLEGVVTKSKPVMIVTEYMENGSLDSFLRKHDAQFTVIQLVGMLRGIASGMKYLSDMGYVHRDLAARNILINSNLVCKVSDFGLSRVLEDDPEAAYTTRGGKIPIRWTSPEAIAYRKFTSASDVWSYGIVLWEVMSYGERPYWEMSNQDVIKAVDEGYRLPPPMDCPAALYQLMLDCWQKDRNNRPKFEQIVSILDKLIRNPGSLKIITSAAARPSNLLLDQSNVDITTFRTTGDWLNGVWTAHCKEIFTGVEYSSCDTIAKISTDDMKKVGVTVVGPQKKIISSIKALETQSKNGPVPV
As to the kind of experiment: immunofluorescence colocalization on HCC70 cells (FIG. 21). On the procedure:
IL-26 merged with EphA3 on the cell surface. […] Original magnification 200×. Scale bar=20 μm. Representative images of three independent experiments with similar results are shown.
(§1) E0771 and HCC70 cells (1×10⁵) were cultured for 24 hours in RPMI1640 medium with 10% FCS on Lab-Tek chamber slides (Thermo Fisher Scientific). The cultured cells were stimulated with Alexa Fluor 488 labeled IL-26 (30 ng/ml) in the presence or absence of recombinant human and mouse EphA3-Ig for 1 hour. HCC70 cells were stimulated with IL-26 (30 ng/ml) in the presence or absence of gefitinib (40 μM), a signal inhibitor, and a neutralizing antibody for 24 hours. Subcutaneous tumor samples obtained from mice were fixed in 4% paraformaldehyde (Thermo Fisher Scientific) and embedded in OCT compound (Tissue-Tek (registered trademark), Sakura Finetek, Japan). Cells and slides were immunostained with each antibody and observed using a Zeiss inverted microscope and Axiovision 2.0 program (Carl Zeiss, Germany). The fluorescence intensity was quantified with Image-J software (NIH). The images were captured using a 100×400× objective.

In test [3] the target is T3, mouse EphA3 on the surface of E0771 cells (mouse, UniProt P29319 21-983).
T3 construct: whole, on cells; Endogenous receptor on E0771 cells; also called cell surface EphA3; EphA3 receptor
T3 sequence (looked up): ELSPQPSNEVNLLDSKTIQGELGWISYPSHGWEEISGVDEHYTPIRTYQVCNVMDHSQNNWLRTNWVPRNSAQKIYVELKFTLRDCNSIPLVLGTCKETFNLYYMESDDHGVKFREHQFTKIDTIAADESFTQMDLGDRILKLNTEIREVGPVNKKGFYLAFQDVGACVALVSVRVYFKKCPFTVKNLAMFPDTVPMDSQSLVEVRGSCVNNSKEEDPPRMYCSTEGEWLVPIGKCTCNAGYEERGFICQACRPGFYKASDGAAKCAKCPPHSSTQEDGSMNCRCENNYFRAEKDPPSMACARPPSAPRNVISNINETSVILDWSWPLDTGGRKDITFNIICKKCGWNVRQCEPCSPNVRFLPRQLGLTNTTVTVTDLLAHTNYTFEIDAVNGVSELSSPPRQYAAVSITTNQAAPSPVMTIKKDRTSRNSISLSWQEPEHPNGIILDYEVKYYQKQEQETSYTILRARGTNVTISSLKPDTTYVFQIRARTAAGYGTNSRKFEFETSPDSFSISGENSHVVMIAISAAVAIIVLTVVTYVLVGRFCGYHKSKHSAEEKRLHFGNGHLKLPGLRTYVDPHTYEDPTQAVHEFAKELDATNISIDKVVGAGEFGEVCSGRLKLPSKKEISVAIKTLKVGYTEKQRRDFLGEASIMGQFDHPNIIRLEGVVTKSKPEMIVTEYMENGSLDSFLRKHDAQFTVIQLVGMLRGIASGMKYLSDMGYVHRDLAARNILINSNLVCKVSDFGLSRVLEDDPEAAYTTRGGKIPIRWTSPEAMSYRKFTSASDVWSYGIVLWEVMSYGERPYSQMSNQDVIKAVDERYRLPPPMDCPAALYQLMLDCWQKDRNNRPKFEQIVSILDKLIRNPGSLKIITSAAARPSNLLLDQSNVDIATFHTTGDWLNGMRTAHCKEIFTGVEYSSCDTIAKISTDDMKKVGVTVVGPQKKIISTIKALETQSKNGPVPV
As to the kind of experiment: 2.5D fluorescence intensity plot of stained E0771 cells (FIG. 18). The protocol:
2.5D intensity plot of EphA3, IL-26, and DAPI signals represents the absolute signal intensity of each pixel. Merged views and individual channels were shown. […] These images show EphA3/IL-26 interaction in E0771 cells. 200×. A representative image of five independent experiments showing similar results is shown.
as §1

B1: mouse anti-human IL-26 monoclonal antibody clone 69-10 (antibody, V domains shown)
VH: QVTLKESGPGILKPSQTLSLTCSFSGFSLSTSGMGVGWIRQPSGKGLEWLAHIWWDDDKYYNPSLKSQLTISKDTSRNQVFLKITSVDTADTATYYCVRGGITATHYYAMDYWGQGTSVTVSS
VL: DIQMTQSPASQSASLGESVTISCLASQTIGTWLSWYQQKPGKSPQLLIYAATSLADGVPSRFSGSGSGTKFSFKISSLQAEDFVSYYCQQLYSSPWTFGGGTKLEIK
notes: Mouse antibody from a hybridoma; also called mouse 69-10; m69-10
The EC50 is the concentration that produces a half-maximal response. Consider B1, for which, in test [1], the EC50 was found to be 0.34 µg/mL.

B2: Recombinant human IL-26 dimer (R&D Systems) (ligand, UniProt Q9NPH9 22-171, looked up)
chain: T1 sequence (looked up)
notes: Bought from R&D Systems and used for cell stimulation; For the immunofluorescence experiments it was labeled with Alexa Fluor 488 (rhIL-26-Alexa 488); also called exogenous IL-26; rhIL-26-Alexa 488
As for B2, the binding result in test [2] and in test [3] was “binds” in each case.
